The Kd is the free concentration of one partner at which half of the binding sites on the other are occupied at equilibrium, for simple one-to-one binding.

These results are taken from paper PMC5394233, “Structural and functional analysis of the human POT1-TPP1 telomeric complex” (Nature Communications, 2017).

Assay [1] has as its target human POT1 C-terminus (POT1C), residues 330-634, wild type (human) (UniProt Q9NUX5). In words: ITC; MicroCal iTC200; 100 uM TPP1(PBD) injected into the cell with 10 uM POT1C; 25 C; 25 mM Hepes pH 7.5, 0.1 M KCl, 5% glycerol, 1 mM TCEP; 16 injections of 2.47 ul; proteins purified separately. For orientation: ITC needs no label: the signal is the heat of the interaction.
Assay [2] has as its target human POT1C (330-634) A532P (human) (UniProt Q9NUX5). The description is as above.
Assay [3] concerns the target human POT1C (330-634) C591W (human) (UniProt Q9NUX5). Described as above.
Assay [4] concerns the target human POT1C (330-634) L343F (human) (UniProt Q9NUX5). The assay is described as above.
Assay [5] has as its target human POT1C (330-634) P446Q (human) (UniProt Q9NUX5). Described as above.
In assay [6] the target is human POT1C (330-634) P475L (human) (UniProt Q9NUX5). Described as above.
Assay [7] deals with human POT1C (330-634) Q623H (human) (UniProt Q9NUX5). The description is as above.
Assay [8] has as its target human POT1C (330-634) R477T (human) (UniProt Q9NUX5). The description is as above.
In assay [9] the target is T1, human POT1C (residues 330-634) Q623H (human, UniProt Q9NUX5 330-634, Q623H).
T1 construct: POT1, human, C-terminal portion (OB-fold and HJR domain), residues 330-634, with the germline melanoma-associated mutation Q623H; PDB 5UN7 holds the wild-type parent with the same limits; The methods describe tag cleavage by TEV for the co-purified complex; For ITC the proteins were purified separately; also called POT1C Q623H; source: E. coli ScarabXpress T7 lac, purified (Ni-NTA, Poros HS/HQ, …)
T1 sequence (looked up): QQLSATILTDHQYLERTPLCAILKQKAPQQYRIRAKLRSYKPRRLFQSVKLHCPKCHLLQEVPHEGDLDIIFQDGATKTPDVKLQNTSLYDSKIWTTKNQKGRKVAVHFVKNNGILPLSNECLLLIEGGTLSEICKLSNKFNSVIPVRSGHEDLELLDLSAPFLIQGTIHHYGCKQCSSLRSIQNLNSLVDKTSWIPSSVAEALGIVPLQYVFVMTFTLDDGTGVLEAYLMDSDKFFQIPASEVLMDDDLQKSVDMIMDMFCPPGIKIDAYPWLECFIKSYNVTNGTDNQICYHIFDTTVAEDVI
In words: ITC; 100 uM TPP1(PBD) injected into the cell with 10 uM POT1C; 25 °C; 25 mM Hepes pH 7.5, 0.1 M KCl, 5% glycerol, 1 mM TCEP; 16 injections of 2.47 ul; three independent experiments. The following applies: both partners purified.

Sequence of human POT1C (330-634) L343F (human) (Q9NUX5 330-634 L343F): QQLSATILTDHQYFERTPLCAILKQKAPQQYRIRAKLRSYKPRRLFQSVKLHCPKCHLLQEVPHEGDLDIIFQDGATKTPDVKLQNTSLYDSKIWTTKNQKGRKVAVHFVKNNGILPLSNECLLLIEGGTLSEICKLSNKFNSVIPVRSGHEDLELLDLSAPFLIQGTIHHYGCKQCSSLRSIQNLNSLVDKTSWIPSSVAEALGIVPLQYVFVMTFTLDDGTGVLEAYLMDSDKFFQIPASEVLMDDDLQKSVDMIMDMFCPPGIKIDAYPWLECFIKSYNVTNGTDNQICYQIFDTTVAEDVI

As for “human TPP1 POT1-binding domain, TPP1(PBD), residues 255-337 (from UniProt Q96AP0 255-337) (domain or fragment)”, the Kd in assay [1] amounted to 120 nM; in [2] it was 117 nM; in assay [3], 870 nM; in assay [4], 114 nM; in assay [5] it was 289 nM; in [6], 164 nM. In addition, the Kd in assay [7] stood at 471 nM; in assay [8] it was 123 nM.

B1: human TPP1(PBD), residues 255-337 (domain or fragment)
chain: SQLLDEMREDQEHQGALVCLAESCLTLEGPCTAPPVTHWAASRCKATGEAVYTVPSSMLCISENDQLILSSLGPCQRTQGPEL
Consider B1, for which the dissociation constant (Kd) in assay [9] came to 472 nM.
